Broadly, the stoichiometry N is a count of units in the complex or per binding partner.

This is an account of results in PMC9197560.

The experiment concerns the target mature TGFβ1 produced in Nicotiana benthamiana (human). The experiment is described as follows: non-reducing Tricine-PAGE with Western blot; mature TGFβ1 released by HCl, 10% Tricine-PAGE under reducing or non-reducing conditions, anti-TGFβ1 blot. On the technique in general: In western blotting, separated proteins are transferred to a membrane and probed.

As for “mature TGFβ1 produced in Nicotiana benthamiana (ligand)”, the stoichiometry N turned out to be 2.
